These results are taken from the supplement of paper PMC10567573.

The chains are these.
B1: KRT18 (parent)
chain: RVRSLETENRRLESKIREHLEKKG
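Also: lentivirally expressed fusions sorted by FACS into six bins by GFP to DsRed ratio, PSI derived from sequencing read proportions per bin multiplied by bin number.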

In this series the parent is B1. Kind of series: protein stability index of a GFP-peptide fusion (GPS, HEK-293T) (PSI 1-6); higher = more stable. The settings on record: c terminus: a fixed tail appended.
As to RVRSLETENRRNESKIREHLEKKG, the protein stability index came out at 5.35.

On to RVRSLETENRRQESKIREHLEKKG, for which the protein stability index stood at 5.19. To RVRSLETENRRIESKIREHLEKKG belongs 4.77. In the case of RVRSLETENRRLESKQREHLEKKG it was 5.09. As to RVRSLETENRRLESKPREHLEKKG, the protein stability index was 5.28. Take RVRSLETENRRLESKWREHLEKKG: the protein stability index worked out at 4.96. To RVRSLETENRRLESKSREHLEKKG belongs 5.16. As to RVRSLETENRRLESKVREHLEKKG, the protein stability index is 4.37. To RVRSLETENRRLESKTREHLEKKG belongs 4.29; to RVRSLETENRRLESKGREHLEKKG, 5.45.

On to RVRSLETENRRLESKLREHLEKKG, for which the protein stability index amounted to 4.32.

For the variant RVRSLETENRRLESKDREHLEKKG, the protein stability index came to 5.71. To RVRSLETENRRLESKEREHLEKKG belongs 3.79. For RVRSLETENRRLESKMREHLEKKG, the protein stability index stood at 5.17. Turning to RVRSLETENRRLESKNREHLEKKG, the protein stability index was 5.56. Consider RVRSLETENRRLESKYREHLEKKG, for which the protein stability index was found to be 4.63. Take RVRSLETENRRLESKCREHLEKKG: the protein stability index was determined as 4.79. To RVRSLETENRRLEIKIREHLEKKG belongs 4.38. In the case of RVRSLETENRRLEHKIREHLEKKG, the protein stability index was 4.92. Consider RVRSLETENRRLEKKIREHLEKKG, for which the protein stability index turned out to be 4.19. In the case of RVRSLETENRRLETKIREHLEKKG it was 4.47; in that of RVRSLETENRRLEYKIREHLEKKG, 4.24. To RVRSLETENRRLELKIREHLEKKG belongs 4.59. Consider RVRSLETENRRLEGKIREHLEKKG, for which the protein stability index worked out at 4.96.

For RVRSLETENRRLEQKIREHLEKKG, the protein stability index is 4.99. As for RVRSLETENRRLEWKIREHLEKKG, the protein stability index stood at 3.98.

On to RVRSLETENRRLEPKIREHLEKKG, for which the protein stability index was determined as 4.86.

Turning to RVRSLETENRRLEVKIREHLEKKG, the protein stability index came out at 4.16. In the case of RVRSLETENRRLENKIREHLEKKG it was 3.68; in that of RVRSLETENRRLEEKIREHLEKKG, 4.78.

Turning to RVRSLETENRRLEAKIREHLEKKG, the protein stability index was determined as 4.6.

Turning to RVRSLETENRRLECKIREHLEKKG, the protein stability index stood at 3.84. In the case of RVRSLETEWRRLESKIREHLEKKG, the protein stability index amounted to 1.85. On to RVRSLETELRRLESKIREHLEKKG, for which the protein stability index was found to be 1.79. To RVRSLETEQRRLESKIREHLEKKG belongs 4.74. RVRSLETEERRLESKIREHLEKKG: the protein stability index amounted to 4.97.

Take RVRSLETEGRRLESKIREHLEKKG: the protein stability index is 3.48. On to RVRSLETEDRRLESKIREHLEKKG, for which the protein stability index stood at 5.09.

Consider RVRSLETEVRRLESKIREHLEKKG, for which the protein stability index is 1.9.

RVRSLETEARRLESKIREHLEKKG: the protein stability index came out at 2.73. To RVRSLETERRRLESKIREHLEKKG belongs 3.81. Turning to RVRSLETEHRRLESKIREHLEKKG, the protein stability index was 4.51. As to RVRSLETEYRRLESKIREHLEKKG, the protein stability index was determined as 3.85.

As for RVRSLETEFRRLESKIREHLEKKG, the protein stability index is 2.3. RVRSLETEIRRLESKIREHLEKKG: the protein stability index was 2. Take RVRSLETEMRRLESKIREHLEKKG: the protein stability index was 2.85. Turning to RVRSLETENRGLESKIREHLEKKG, the protein stability index amounted to 3.96. Consider RVRSLETENRFLESKIREHLEKKG, for which the protein stability index was determined as 4.74. As to RVRSLETENRLLESKIREHLEKKG, the protein stability index was 4.31. In the case of RVRSLETENRYLESKIREHLEKKG, the protein stability index was 3.33. To RVRSLETENRNLESKIREHLEKKG belongs 4.35; to RVRSLETENRHLESKIREHLEKKG, 4.91; to RVRSLETENRDLESKIREHLEKKG, 5.08.

For RVRSLETENRSLESKIREHLEKKG, the protein stability index worked out at 5.33. For RVRSLETENRWLESKIREHLEKKG, the protein stability index was determined as 3.69. Regarding RVRSLETENRILESKIREHLEKKG, the protein stability index stood at 4.47.

For the variant RVRSLETENRELESKIREHLEKKG, the protein stability index was 4.73. On to RVRSLETENRCLESKIREHLEKKG, for which the protein stability index came to 4.96. On to RVRSLETENRTLESKIREHLEKKG, for which the protein stability index is 4.94. On to RVRSLETENRVLESKIREHLEKKG, for which the protein stability index was found to be 4.79.

For RVRSLETENRALESKIREHLEKKG, the protein stability index turned out to be 4.43. With RVRSLETTNRRLESKIREHLEKKG, the protein stability index came to 4.2. Consider RVRSLETMNRRLESKIREHLEKKG, for which the protein stability index worked out at 4.32. Regarding RVRSLETYNRRLESKIREHLEKKG, the protein stability index worked out at 3.82. As to RVRSLETRNRRLESKIREHLEKKG, the protein stability index came out at 3.46.

For RVRSLETQNRRLESKIREHLEKKG, the protein stability index was 3.38.

For RVRSLETENRRLESKIREHEEKKG, the protein stability index was found to be 5.7. Regarding RVRSLETENRRLESKIREHFEKKG, the protein stability index was determined as 4.59. In the case of RVRSLETENRRLESKIREHKEKKG it was 4.96; in that of RVRSLETENRRLESKIREHIEKKG, 4.79; in that of RVRSLETENRRLESKIREHGEKKG, 4.97. RVRSLETENRRLESKIREHPEKKG: the protein stability index worked out at 5.58. RVRSLETENRRLESKIREHMEKKG: the protein stability index was 5.12.

Consider RVRSLETENRRLESKIREHHEKKG, for which the protein stability index was found to be 5.35. Turning to RVRSLETENRRLESKIREHAEKKG, the protein stability index turned out to be 5.1. In the case of RVRSLETENRRLESKIREHNEKKG it was 4.78. RVRSLETENRRLRSKIREHLEKKG: the protein stability index came to 3.99.

For RVRSLETENRRLISKIREHLEKKG, the protein stability index was 2.37. To RVRSLETENRRLHSKIREHLEKKG belongs 4.21; to RVRSLETENRRLTSKIREHLEKKG, 4.1. Consider RVRSLETENRRLCSKIREHLEKKG, for which the protein stability index was 4.3.

On to RVRSLETENRRLFSKIREHLEKKG, for which the protein stability index worked out at 2.16. On to RVRSLETENRRLVSKIREHLEKKG, for which the protein stability index worked out at 3.74. With RVRSLETENRRLYSKIREHLEKKG, the protein stability index was found to be 3.05. To RVRSLETENRRLDSKIREHLEKKG belongs 2.98.

Take RVRSLETENRRLMSKIREHLEKKG: the protein stability index was 3.26. With RVRSLETENRRLWSKIREHLEKKG, the protein stability index amounted to 3.85.

As for RVRSLETENRRLPSKIREHLEKKG, the protein stability index is 4.33. As to RVRSLETENRRLKSKIREHLEKKG, the protein stability index came to 4.84. For RVRSLETENRRLGSKIREHLEKKG, the protein stability index came out at 4.75. To RVRSLETENRRLQSKIREHLEKKG belongs 3.95; to RVRSLETENRRLSSKIREHLEKKG, 3.91.

Consider RVRSLETENRRLNSKIREHLEKKG, for which the protein stability index was 4.89.

Consider RVRSLETENRRLASKIREHLEKKG, for which the protein stability index was determined as 4.22.
